Here are results for three molecules from PMC3924328, “Structure of the S100A4/myosin-IIA complex” (BMC Structural Biology, 2013).

Sequences and labels used below:
B1: FITC-MIIA^1904-1927 peptide (peptide)
peptide: {FITC-Ahx}-TETADAMNREVSSLKNKLRRGDLP-NH2
SMILES: CSCC[C@H](NC(=O)[C@H](C)NC(=O)[C@H](CC(=O)O)NC(=O)[C@H](C)NC(=O)[C@@H](NC(=O)[C@H](CCC(=O)O)NC(=O)[C@@H](NC(=O)CCCCCNC(=S)Nc1ccc2c(c1)C(=O)OC21c2ccc(O)cc2Oc2cc(O)ccc21)[C@@H](C)O)[C@@H](C)O)C(=O)N[C@@H](CC(N)=O)C(=O)N[C@@H](CCCNC(=N)N)C(=O)N[C@@H](CCC(=O)O)C(=O)N[C@H](C(=O)N[C@@H](CO)C(=O)N[C@@H](CO)C(=O)N[C@@H](CC(C)C)C(=O)N[C@@H](CCCCN)C(=O)N[C@@H](CC(N)=O)C(=O)N[C@@H](CCCCN)C(=O)N[C@@H](CC(C)C)C(=O)N[C@@H](CCCNC(=N)N)C(=O)N[C@@H](CCCNC(=N)N)C(=O)NCC(=O)N[C@@H](CC(=O)O)C(=O)N[C@@H](CC(C)C)C(=O)N1CCC[C@H]1C(N)=O)C(C)C
notes: source: synthetic peptide (Bio-Synthesis Inc.)
B2: S100A4 (wild-type, full-length, human) (natural protein)
chain: not shown
notes: Dimer; also called wild-type S100A4; Ca^2+-S100A4; source: E. coli BL21(DE3)*, purified (ammonium sulfate, Phenyl-Sepharose, Q XL anion exchange); 15N-labelled from M9 medium for NMR
B3: MIIA^1851-1960 (C-terminal fragment of the human myosin-IIA heavy chain) (domain or fragment, UniProt P35579 1851-1960, looked up)
chain: VDDERRNAEQYKDQADKASTRLKQLKRQLEEAEEEAQRANASRRKLQRELEDATETADAMNREVSSLKNKLRRGDLPFVVPRRMARKGAGDGSDEEVDGKADGAEAKPAE
notes: about 75 residues of the coiled-coil and the entire C-terminal tailpiece; A dimer when alone (sedimentation equilibrium); Printed monomer mass 12,397.5 Da; source: E. coli BL21(DE3)*, purified (High Q Sepharose, hydroxyapatite, Sephacryl S200)

In series [1] the target is T1, S100A4Δ8C (S100A4 with the C-terminal eight amino acids deleted) (human, UniProt P26447 1-93).
T1 construct: S100A4, human, codon-optimized, untagged, in pET11b; deletion of the C-terminal eight amino acids (residues 94-101 absent); Dimer; also called Ca^2+-S100A4Δ8C; apo-S100A4Δ8C; source: E. coli BL21(DE3)*, purified (ammonium sulfate, Phenyl-Sepharose, Q XL anion exchange; Superdex 75 for crystallization)
T1 sequence (P26447 1-93, stated change not applied): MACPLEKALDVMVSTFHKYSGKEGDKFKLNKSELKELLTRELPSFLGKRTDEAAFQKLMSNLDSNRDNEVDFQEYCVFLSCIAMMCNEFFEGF
Kind of series: fluorescence polarisation; direct anisotropy titration; 50 nM FITC-MIIA^1904-1927, 0-30 μM S100A4Δ8C dimer; 22°C; 20 mM Tris pH 7.5, 150 mM KCl, 1 mM DTT, 0.5 mM CaCl2, 0.5 mg/ml BSA; single site saturation fit. The following applies: both partners purified. A general note: Polarisation of emitted light reports the rotation of a fluorescent probe.

Series [2] concerns the molecule itself. In words: AUC; sedimentation equilibrium, 22°C, interference optics; 20 mM Tris pH 7.5, 150 mM KCl, 0.5 mM CaCl2, 1 mM TCEP; MIIA^1851-1960 alone and mixed with S100A4 at 0.5:1 and 1:1 (dimer:dimer); 12,000, 20,000 and 28,000 rpm.
For series [3], the target named is B2. In words: AUC; sedimentation velocity, 22°C, 53,000 rpm; 20 mM Tris pH 7.5, 150 mM KCl, 0.5 mM CaCl2, 1 mM TCEP; each protein alone and MIIA^1851-1960 dimer:S100A4 dimer at 0.5:1, 1:1, 1.5:1. The following applies: both partners purified.
In series [4] the target is B2. Kind of series: fluorescence polarisation; competition anisotropy; 50 nM FITC-MIIA^1904-1927, 0.3 μM S100A4 dimer, 0-10 μM MIIA^1851-1960 dimer; 22°C; 20 mM Tris pH 7.5, 150 mM KCl, 1 mM DTT, 0.5 mM CaCl2, 0.5 mg/ml BSA. The following applies: both partners purified.
Series [5] concerns the target B2. Kind of series: AUC; sedimentation equilibrium, 22°C, interference optics; 20 mM Tris pH 7.5, 150 mM KCl, 0.5 mM CaCl2, 1 mM TCEP; MIIA^1851-1960 alone and mixed with S100A4 at 0.5:1 and 1:1 (dimer:dimer); 12,000, 20,000 and 28,000 rpm. The following applies: both partners purified.

The star is where a group is joined. FITC = O=C1OC2(c3ccc(O)cc3Oc3cc(O)ccc32)c2ccc(NC(=S)*)cc21; Ahx = NCCCCCC(=O)O

In the case of B1, the Kd (usually the concentration at which binding is half-saturated) in series [1] was determined as 510 ± 50 nM.

In the case of B2, in series [2], the binding result is “binds”.

For the molecule B3, the results for the “stoichiometry N” value in series [3], in series [2] and in series [5] were 1 MIIA^1851-1960 polypeptide per S100A4 dimer, 2 and 1 MIIA^1851-1960 polypeptide chain per S100A4 dimer, respectively. In addition, in series [4], the IC50 (commonly the concentration needed to halve the response being measured) amounted to 21.2 nM.
